Values quoted from earlier work in article PMC9691366, “Modulating the pharmacokinetic profile of Actinium-225-labeled macropa-derived radioconjugates by dual targeting of PSMA and albumin” (Theranostics, 2022).

System: tumor
Conditions: in vivo, 24 h; cited from earlier work

For [^177Lu]Lu-PSMA-617, the tumor uptake is listed as 11.20 ± 4.17 %ID/g.
